Measured values: patent EP4680648A1 (dated 2026)

Legend:
[1] = target: T1, dog HER3 expressed on CHO-S cells (CHO-dHER3 cells) (dog, UniProt P21860 20-1342 (human entry)); experiment: flow cytometry on CHO-dHER3 cells
T1 chain: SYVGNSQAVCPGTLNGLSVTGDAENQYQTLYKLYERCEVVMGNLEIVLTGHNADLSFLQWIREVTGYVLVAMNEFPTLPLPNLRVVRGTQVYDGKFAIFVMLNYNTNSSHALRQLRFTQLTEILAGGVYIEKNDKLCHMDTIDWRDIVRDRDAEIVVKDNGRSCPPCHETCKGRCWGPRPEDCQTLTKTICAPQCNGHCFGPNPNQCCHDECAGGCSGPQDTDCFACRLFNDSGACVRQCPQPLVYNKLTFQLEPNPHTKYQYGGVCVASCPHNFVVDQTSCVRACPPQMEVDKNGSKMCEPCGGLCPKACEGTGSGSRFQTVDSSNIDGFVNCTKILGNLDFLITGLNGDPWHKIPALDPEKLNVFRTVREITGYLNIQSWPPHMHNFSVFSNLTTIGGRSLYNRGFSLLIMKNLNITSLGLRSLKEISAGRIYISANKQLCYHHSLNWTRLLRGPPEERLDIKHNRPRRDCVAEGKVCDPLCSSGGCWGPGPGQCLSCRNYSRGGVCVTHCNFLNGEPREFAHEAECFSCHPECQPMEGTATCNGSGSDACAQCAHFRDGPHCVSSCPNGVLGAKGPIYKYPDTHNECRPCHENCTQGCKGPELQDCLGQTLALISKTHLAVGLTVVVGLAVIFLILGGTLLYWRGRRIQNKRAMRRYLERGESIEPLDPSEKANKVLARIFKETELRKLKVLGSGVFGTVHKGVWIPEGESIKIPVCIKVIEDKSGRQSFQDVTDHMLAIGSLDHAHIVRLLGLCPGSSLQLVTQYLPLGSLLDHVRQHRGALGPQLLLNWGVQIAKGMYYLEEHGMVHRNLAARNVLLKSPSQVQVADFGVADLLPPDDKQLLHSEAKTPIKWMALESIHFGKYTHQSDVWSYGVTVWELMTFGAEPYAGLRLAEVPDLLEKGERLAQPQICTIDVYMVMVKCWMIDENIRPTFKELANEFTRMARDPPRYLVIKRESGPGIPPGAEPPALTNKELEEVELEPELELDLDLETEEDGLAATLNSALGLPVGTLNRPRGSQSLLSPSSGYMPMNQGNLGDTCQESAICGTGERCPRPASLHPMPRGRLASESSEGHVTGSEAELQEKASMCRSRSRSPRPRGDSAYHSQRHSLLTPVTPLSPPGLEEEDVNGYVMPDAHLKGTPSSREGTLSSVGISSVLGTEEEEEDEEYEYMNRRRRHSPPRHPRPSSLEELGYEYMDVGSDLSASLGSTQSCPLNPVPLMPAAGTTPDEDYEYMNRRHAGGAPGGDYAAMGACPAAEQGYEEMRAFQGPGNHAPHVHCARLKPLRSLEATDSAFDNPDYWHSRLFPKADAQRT

[2] = target: human HER3 expressed on CHO-S cells (CHO-hHER3 cells) (human, UniProt P21860 20-643); experiment: flow cytometry on CHO-hHER3 cells
[3] = target: T2, monkey (Macaca fascicularis) HER3 expressed on CHO-S cells (CHO-fasHER3 cells) (monkey (Macaca fascicularis), UniProt P21860 20-643 (human entry)); experiment: flow cytometry on CHO-fasHER3 cells
T2 construct: also called monkey HER3
T2 chain: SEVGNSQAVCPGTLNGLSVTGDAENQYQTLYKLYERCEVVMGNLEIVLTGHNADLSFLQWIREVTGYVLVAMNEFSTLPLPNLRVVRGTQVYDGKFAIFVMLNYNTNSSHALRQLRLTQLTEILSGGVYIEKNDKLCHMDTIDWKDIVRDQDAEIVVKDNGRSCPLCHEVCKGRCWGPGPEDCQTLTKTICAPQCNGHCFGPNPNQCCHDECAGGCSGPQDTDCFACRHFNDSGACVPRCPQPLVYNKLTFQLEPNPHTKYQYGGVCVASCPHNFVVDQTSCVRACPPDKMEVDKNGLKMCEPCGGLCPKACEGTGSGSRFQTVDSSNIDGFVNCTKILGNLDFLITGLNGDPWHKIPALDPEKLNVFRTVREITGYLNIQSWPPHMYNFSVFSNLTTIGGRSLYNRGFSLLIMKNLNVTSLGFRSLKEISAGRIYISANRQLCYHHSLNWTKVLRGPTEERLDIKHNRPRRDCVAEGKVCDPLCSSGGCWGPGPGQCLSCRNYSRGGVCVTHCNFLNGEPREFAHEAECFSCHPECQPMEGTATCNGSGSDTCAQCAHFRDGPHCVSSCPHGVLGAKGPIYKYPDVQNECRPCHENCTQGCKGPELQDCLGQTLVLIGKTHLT

[4] = target: T3, His-tagged human HER3 protein (hHER3, ACRO Biosystems Inc., Cat#: ER3-H5223) (human, UniProt P21860 20-643); experiment: SPR (Biacore 8K), antibody captured on Protein A chip, His-tagged hHER3 as analyte
T3 construct: Bought protein; also called hHER3-His; not shown: His tag

[5] = target: mouse HER3 expressed on CHO-S cells (CHO-mHER3 cells) (mouse, UniProt Q61526 20-641); experiment: flow cytometry on CHO-mHER3 cells
[6] = target: T3, His-tagged human HER3 protein (hHER3, …); experiment: SPR (Biacore 8K), antibody captured on Protein A chip, His-tagged HER3 as analyte

Measured: binding result

mouse HER3 expressed on CHO-S cells (CHO-mHER3 cells), sequence (Q61526 20-641): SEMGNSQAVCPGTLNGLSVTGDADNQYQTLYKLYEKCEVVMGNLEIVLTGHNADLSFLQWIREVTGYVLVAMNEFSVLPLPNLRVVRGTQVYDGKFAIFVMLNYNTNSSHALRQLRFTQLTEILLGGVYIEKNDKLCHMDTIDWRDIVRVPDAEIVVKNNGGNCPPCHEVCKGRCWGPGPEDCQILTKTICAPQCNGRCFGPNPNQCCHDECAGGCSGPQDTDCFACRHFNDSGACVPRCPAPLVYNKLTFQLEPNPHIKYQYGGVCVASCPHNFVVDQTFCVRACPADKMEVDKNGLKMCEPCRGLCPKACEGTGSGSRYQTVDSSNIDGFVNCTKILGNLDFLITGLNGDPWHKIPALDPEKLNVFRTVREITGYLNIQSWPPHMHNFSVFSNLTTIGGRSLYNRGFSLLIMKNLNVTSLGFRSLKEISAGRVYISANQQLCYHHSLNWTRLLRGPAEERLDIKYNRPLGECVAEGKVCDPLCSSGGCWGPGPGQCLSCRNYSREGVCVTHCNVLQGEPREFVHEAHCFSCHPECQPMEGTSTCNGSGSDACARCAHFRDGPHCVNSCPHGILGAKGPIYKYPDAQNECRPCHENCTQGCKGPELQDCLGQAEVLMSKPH

B1: anti-HER3 antibody 1C5 (antibody, human IgG1, V domains shown)
VH: QVQLVESGGGVVQPGKSLRLSCAASGFTFSRSGMHWVRQAPGKGLEWVALISFDGSNKYYADSVKGRFTISRDNSKNTLNLQMNSLRAEDTAVYYCAKGGFGVVIYDAFDIWGHGTMVTVSS
VL: not shown
notes: common light chain
binds: [1] | [2] | [3] | [4]

B2: anti-HER3 antibody 1D6 (antibody, human IgG1, V domains shown)
VH: EVQLVQSGPGLVKPSETLSLTCTVSGGSISSNNYYWAWIRQPPGKGLEWIGSLYYTGRAYYKSSLKSRVTISVDTSNDQFSLRLTSVTAADTAIYYCARHDCGNTCLNWFDRWGQGTLVTVSS
VL: not shown
notes: common light chain
not listed: [4]
binds: all other assays above

B3: anti-HER3 antibody 3G6 (antibody, human IgG1, V domains shown)
VH: QVQLVQSGPVLVKPTETLTLTCTVSGFSLSNIRMGVSWIRQPPGKALEWLAHIFSNDDKSYSTSLKSRLTISKDTSKSQVVLTMTNVDPVDTATYYCTRMRYSGGPFDYWGQGTLVTVSS
VL: not shown
notes: common light chain
not listed: [6]
binds: all other assays above

B4: anti-HER3 antibody 3E1 (antibody, human IgG1, V domains shown)
VH: EVQLVQSGPVLAKPTETLTLTCTVSGFSLSNIRMGVSWIRQPPGKALEWLAHIFSNDDKSYSPSLKNRLTISKDTSKSQVVLTMTTMDPMDTATYYCTRMKYSGGPFDYWGQGTLVTVSS
VL: not shown
notes: common light chain
not listed: [6]
binds: all other assays above

B5: anti-HER3 antibody 1B2 (antibody, V domains shown)
VH: QVQLVQSGPVLVKPTETLTLTCTVSTFSLSNARMGVSWIRQPPGKALEWLAHIFSNDDKSYSPSLKSRLTISKDTSKTQVVLTMTNMDPVDTATYYCSRMRYSGGPFDYWGQGSLVTVSS
VL: not shown
notes: common light chain
not listed: [6]
binds: all other assays above
